Experimental data published in paper doi:10.1101/2025.11.26.690650 (bioRxiv, 2025).

B1: Turnip crinkle virus P38 protein (TCV P38), wildtype (natural protein, UniProt P06663 1-351, looked up)
chain: MENDPRVRKFASDGAQWAIKWQKKGWSTLTSRQKQTARAAMGIKLSPVAQPVQKVTRLSAPVALAYREVSTQPRVSTARDGITRSGSELITTLKKNTDTEPKYTTAVLNPSEPGTFNQLIKEAAQYEKYRFTSLRFRYSPMSPSTTGGKVALAFDRDAAKPPPNDLASLYNIEGCVSSVPWTGFILTVPTDSTDRFVADGISDPKLVDFGKLIMATYGQGANDAAQLGEVRVEYTVQLKNRTGSTSDAQIGDFAGVKDGPRLVSWSKTKGTAGWEHDCHFLGTGNFSLTLFYEKAPVSGLENADASDFSVLGEAAAGSVQWAGVKVAERGQGVKMVTTEEQPKGKWQALRI
B2: dsRNA_33 (dsRNA)
RNA 1: CUAAGAUGCUCGCUGCCAAUGAACGACCCUCCCUAA
RNA 2: UUAGGGAGGGUCGUUCAUUGGCAGCGAGCAUCU
modifications: 5'-phosphate
B3: siR gf698_24 (dsRNA)
RNA 1: UAGUUCAUCCAUGCCAUGUGUAAU
RNA 2: UACACAUGGCAUGGAUGAACUAUA
modifications: 5'-phosphate
B4: siR gf698_22 (dsRNA)
RNA 1: UAGUUCAUCCAUGCCAUGUGUA
RNA 2: CACAUGGCAUGGAUGAACUAUA
modifications: 5'-phosphate
B5: AtmiR162 (dsRNA)
RNA 1: UCGAUAAACCUCUGCAUCCAG
RNA 2: GGAGGCAGCGGUUCAUCGAUC
modifications: 5'-phosphate
B6: AtmiR168 (dsRNA)
RNA 1: UCGCUUGGUGCAGGUCGGGAA
RNA 2: CCCGCCUUGCAUCAACUGAAU
modifications: 5'-phosphate
B7: NbmiR403a (dsRNA)
RNA 1: UUAGAUUCACGCACAAACUCG
RNA 2: UGUUUGUGCGUGAAUCUGACA
modifications: 5'-phosphate
B8: siR gf698_21 (dsRNA)
RNA 1: UAGUUCAUCCAUGCCAUGUGU
RNA 2: ACAUGGCAUGGAUGAACUAUA
modifications: 5'-phosphate
B9: AtmiR403a (dsRNA)
RNA 1: UUAGAUUCACGCACAAACUCG
RNA 2: UGUUUUGUGCUUGAAUCUAAUU
modifications: 5'-phosphate
B10: NbmiR403b (dsRNA)
RNA 1: UUAGAUUCACGCACAAACUCG
RNA 2: UGUUUGUGCGUGAUUCUGACA
modifications: 5'-phosphate
B11: ss gf698_21 (ssRNA)
RNA: UAGUUCAUCCAUGCCAUGUGU
modifications: 5'-phosphate
B12: ss gf698_24 (ssRNA)
RNA: UAGUUCAUCCAUGCCAUGUGUAAU
modifications: 5'-phosphate

Molecular target: the molecule itself
Assay: AUC

Molecule | stoichiometry N
B1 | 2

Molecular target: the molecule itself
Assay: crystal structure

Molecule | stoichiometry N
B1 | 60

Molecular target: T1, TCV P38 (capsid protein, VSR) wild type (Turnip crinkle virus (pTCV cDNA), UniProt P06663 1-351)
T1 sequence: B1 chain
Assay: competition

Molecule | Ki
B2 | 0.06 ± 0.01 nM
B3 | 0.33 ± 0.08 nM
B4 | 0.35 ± 0.1 nM
B5 | 0.33 ± 0.17 nM
B6 | 0.7 ± 0.2 nM

Molecular target: T1, TCV P38 (capsid protein, VSR) wild type
Assay: EMSA

Molecule | Kd
B7 | 0.36 ± 0.05 nM
B8 | 0.56 ± 0.09 nM
B9 | 0.87 ± 0.13 nM
B10 | 1.27 ± 0.1 nM
B3 | 0.44 ± 0.09 nM
B4 | 0.53 ± 0.07 nM
B5 | 0.3 ± 0.03 nM
B6 | 0.55 ± 0.05 nM

Molecular target: T1, TCV P38 (capsid protein, VSR) wild type
Assay: EMSA
Remark: another data set of the same source

Molecule | binding result
B11 | no binding
B12 | no binding

Molecular target: TCV P38_W274A (Turnip crinkle virus) (UniProt P06663)
Assay: native MS

Molecule | stoichiometry N
TCV P38_W274A (from UniProt P06663 1-351) (natural protein) | 2

Molecular target: T1, TCV P38 (capsid protein, VSR) wild type
Assay: competition
Remark: another data set of the same source

Molecule | Ki
B2 | 0.14 ± 0.03 nM
B3 | 0.4 ± 0.1 nM
B4 | 0.18 ± 0.05 nM

Molecular target: T1, TCV P38 (capsid protein, VSR) wild type
Assay: competition
Remark: another data set of the same source

Molecule | Ki
B8 | 0.7 ± 0.07 nM
B2 | 0.07 ± 0.03 nM
B3 | 0.33 ± 0.03 nM
B4 | 0.57 ± 0.06 nM
B5 | 0.5 ± 0.15 nM
B6 | 0.95 ± 0.3 nM

Molecular target: T1, TCV P38 (capsid protein, VSR) wild type
Assay: EMSA
Remark: another data set of the same source

Molecule | Kd
B2 | 0.77 ± 0.05 nM
